# Data taken from patent US20230407373A1 (priority 2020, published 2023).
# Like-named read-outs stand apart in the source and are kept apart here.
# B1: DDX17 (protein, UniProt Q92841 1-729, looked up)
# Probable ATP-dependent RNA …: MPTGFVAPILCVLLPSPTREAATVASATGDSASERESAAPAAAPTAEAPPPSVVTRPEPQALPSPAIRAPLPDLYPFGTMRGGGFGDRDRDRDRGGFGARGGGGLPPKKFGNPGERLRKKKWDLSELPKFEKNFYVEHPEVARLTPYEVDELRRKKEITVRGGDVCPKPVFAFHHANFPQYVMDVLMDQHFTEPTPIQCQGFPLALSGRDMVGIAQTGSGKTLAYLLPAIVHINHQPYLERGDGPICLVLAPTRELAQQVQQVADDYGKCSRLKSTCIYGGAPKGPQIRDLERGVEICIATPGRLIDFLESGKTNLRRCTYLVLDEADRMLDMGFEPQIRKIVDQIRPDRQTLMWSATWPKEVRQLAEDFLRDYTQINVGNLELSANHNILQIVDVCMESEKDHKLIQLMEEIMAEKENKTIIFVETKRRCDDLTRRMRRDGWPAMCIHGDKSQPERDWVLNEFRSGKAPILIATDVASRGLDVEDVKFVINYDYPNSSEDYVHRIGRTARSTNKGTAYTFFTPGNLKQARELIKVLEEANQAINPKLMQLVDHRGGGGGGGGRSRYRTTSSANNPNLMYQDECDRRLRGVKDGGRRDSASYRDRSETDRAGYANGSGYGSPNSAFGAQAGQYTYGQGTYGAAAYGTSSYTAQEYGAGTYGASSTTSTGRSSQSSSQQFSGIGRSGQQPQPLMSQQFAQPPGATNMIGYMGQTAYQYPPPPPPPPPSRK
# B2: MBNL1 (protein, UniProt Q9NR56 1-388, looked up)
# Muscleblind-like protein 1: MAVSVTPIRDTKWLTLEVCREFQRGTCSRPDTECKFAHPSKSCQVENGRVIACFDSLKGRCSRENCKYLHPPPHLKTQLEINGRNNLIQQKNMAMLAQQMQLANAMMPGAPLQPVPMFSVAPSLATNASAAAFNPYLGPVSPSLVPAEILPTAPMLVTGNPGVPVPAAAAAAAQKLMRTDRLEVCREYQRGNCNRGENDCRFAHPADSTMIDTNDNTVTVCMDYIKGRCSREKCKYFHPPAHLQAKIKAAQYQVNQAAAAQAAATAAAMTQSAVKSLKRPLEATFDLGIPQAVLPPLPKRPALEKTNGATAVFNTGIFQYQQALANMQLQQHTAFLPPVPMVHGATPATVSAATTSATSVPFAATATANQIPIISAEHLTSHKYVTQM
# B3: EDF1 (protein, UniProt O60869 2-148, looked up)
# Endothelial …: AESDWDTVTVLRKKGPTAAQAKSKQAILAAQRRGEDVETSKKWAAGQNKQHSITKNTAKLDRETEELHHDRVTLEVGKVIQQGRQSKGLTQKDLATKINEKPQVIADYESGRAIPNNQVLGKIERAIGLKLRGKDIGKPIEKGPRAK
# B4: MAP4 (protein, UniProt P27816 2-1152, looked up)
# Microtubule-associated …: ADLSLADALTEPSPDIEGEIKRDFIATLEAEAFDDVVGETVGKTDYIPLLDVDEKTGNSESKKKPCSETSQIEDTPSSKPTLLANGGHGVEGSDTTGSPTEFLEEKMAYQEYPNSQNWPEDTNFCFQPEQVVDPIQTDPFKMYHDDDLADLVFPSSATADTSIFAGQNDPLKDSYGMSPCNTAVVPQGWSVEALNSPHSESFVSPEAVAEPPQPTAVPLELAKEIEMASEERPPAQALEIMMGLKTTDMAPSKETEMALAKDMALATKTEVALAKDMESPTKLDVTLAKDMQPSMESDMALVKDMELPTEKEVALVKDVRWPTETDVSSAKNVVLPTETEVAPAKDVTLLKETERASPIKMDLAPSKDMGPPKENKKETERASPIKMDLAPSKDMGPPKENKIVPAKDLVLLSEIEVAQANDIISSTEISSAEKVALSSETEVALARDMTLPPETNVILTKDKALPLEAEVAPVKDMAQLPETEIAPAKDVAPSTVKEVGLLKDMSPLSETEMALGKDVTPPPETEVVLIKNVCLPPEMEVALTEDQVPALKTEAPLAKDGVLTLANNVTPAKDVPPLSETEATPVPIKDMEIAQTQKGISEDSHLESLQDVGQSAAPTFMISPETVTGTGKKCSLPAEEDSVLEKLGERKPCNSQPSELSSETSGIARPEEGRPVVSGTGNDITTPPNKELPPSPEKKTKPLATTQPAKTSTSKAKTQPTSLPKQPAPTTIGGLNKKPMSLASGLVPAAPPKRPAVASARPSILPSKDVKPKPIADAKAPEKRASPSKPASAPASRSGSKSTQTVAKTTTAAAVASTGPSSRSPSTLLPKKPTAIKTEGKPAEVKKMTAKSVPADLSRPKSTSTSSMKKTTTLSGTAPAAGVVPSRVKATPMPSRPSTTPFIDKKPTSAKPSSTTPRLSRLATNTSAPDLKNVRSKVGSTENIKHQPGGGRAKVEKKTEAAATTRKPESNAVTKTAGPIASAQKQPAGKVQIVSKKVSYSHIQSKCGSKDNIKHVPGGGNVQIQNKKVDISKVSSKCGSKANIKHKPGGGDVKIESQKLNFKEKAQAKVGSLDNVGHLPAGGAVKTEGGGSEAPLCPGPPAGEEPAISEAAPEAGAPTSASGLNGHPTLSGGGDQREAQTLDSQIQETSI
# B5: SRSF7 (protein, UniProt Q16629 1-238, looked up)
# Serine/arginine-rich splicing …: MSRYGRYGGETKVYVGNLGTGAGKGELERAFSYYGPLRTVWIARNPPGFAFVEFEDPRDAEDAVRGLDGKVICGSRVRVELSTGMPRRSRFDRPPARRPFDPNDRCYECGEKGHYAYDCHRYSRRRRSRSRSRSHSRSRGRRYSRSRSRSRGRRSRSASPRRSRSISLRRSRSASLRRSRSGSIKGSRYFQSPSRSRSRSRSISRPRSSRSKSRSPSPKRSRSPSGSPRRSASPERMD
# B6: KHSRP (protein, UniProt Q92945 2-711, looked up)
# Far upstream element-binding …: SDYSTGGPPPGPPPPAGGGGGAGGAGGGPPPGPPGAGDRGGGGPGGGGPGGGSAGGPSQPPGGGGPGIRKDAFADAVQRARQIAAKIGGDAATTVNNSTPDFGFGGQKRQLEDGDQPESKKLASQGDSISSQLGPIHPPPRTSMTEEYRVPDGMVGLIIGRGGEQINKIQQDSGCKVQISPDSGGLPERSVSLTGAPESVQKAKMMLDDIVSRGRGGPPGQFHDNANGGQNGTVQEIMIPAGKAGLVIGKGGETIKQLQERAGVKMILIQDGSQNTNVDKPLRIIGDPYKVQQACEMVMDILRERDQGGFGDRNEYGSRIGGGIDVPVPRHSVGVVIGRSGEMIKKIQNDAGVRIQFKQDDGTGPEKIAHIMGPPDRCEHAARIINDLLQSLRSGPPGPPGGPGMPPGGRGRGRGQGNWGPPGGEMTFSIPTHKCGLVIGRGGENVKAINQQTGAFVEISRQLPPNGDPNFKLFIIRGSPQQIDHAKQLIEEKIEGPLCPVGPGPGGPGPAGPMGPFNPGPFNQGPPGAPPHAGGPPPHQYPPQGWGNTYPQWQPPAPHDPSKAAAAAADPNAAWAAYYSHYYQQPPGPVPGPAPAPAAPPAQGEPPQPPPTGQSDYTKAWEEYYKKIGQQPQQPGAPPQQDYTKAWEEYYKKQAQVATGGGPGAPPGSQPDYSAAWAEYYRQQAAYYGQTPGPGGPQPPPTQQGQQQAQ
# B7: FUS (protein, UniProt P35637 1-526, looked up)
# RNA-binding protein FUS: MASNDYTQQATQSYGAYPTQPGQGYSQQSSQPYGQQSYSGYSQSTDTSGYGQSSYSSYGQSQNTGYGTQSTPQGYGSTGGYGSSQSSQSSYGQQSSYPGYGQQPAPSSTSGSYGSSSQSSSYGQPQSGSYSQQPSYGGQQQSYGQQQSYNPPQGYGQQNQYNSSSGGGGGGGGGGNYGQDQSSMSSGGGSGGGYGNQDQSGGGGSGGYGQQDRGGRGRGGSGGGGGGGGGGYNRSSGGYEPRGRGGGRGGRGGMGGSDRGGFNKFGGPRDQGSRHDSEQDNSDNNTIFVQGLGENVTIESVADYFKQIGIIKTNKKTGQPMINLYTDRETGKLKGEATVSFDDPPSAKAAIDWFDGKEFSGNPIKVSFATRRADFNRGGGNGRGGRGRGGPMGRGGYGGGGSGGGGRGGFPSGGGGGGGQQRAGDWKCPNPTCENMNFSWRNECNQCKAPKPDGPGGGPGGSHMGGNYGDDRRGGRGGYDRGGYRGRGGDRGGFRGGRGGGDRGGFGPGKMDSRGEHRQDRRERPY
# Experiments:
# Assay type in all cases: binding
# HCoV-OC43 gRNA and sgRNA = tested on: HCoV-OC43 gRNA and sgRNA
# [1] = tested on: SARS-CoV-2 gRNA and sgRNAs; conditions: for target (unweighted spectral count in RNP capture): Probe II capture, LC-MS/MS LFQ; for background (unweighted spectral count in control): no-probe control pull-down, used as background for Probe II
# SARS-CoV-2 gRNA = conditions: for target (unweighted spectral count of the protein in the RNP capture): LC-MS/MS, Probe I sample (first 199 lines of Table 2)
# [2] = 36 hpi, type n_36_v, tested against no-probe control, FDR<10%
# [3] = OC43 Probe II, 24 hpi (type n_24_v), infected cells, tested against no-probe control
# [4] = OC43 Probe II, 12 hpi (type n_12_v), infected cells, tested against no-probe control
# [5] = 24 hpi, type n_24_v, tested against no-probe control, FDR<10%
# [6] = type n_48_v, 48 hpi, OC43 Probe II capture on infected cells
# [7] = type n_48_v, 48 hpi, no-probe control on infected cells
molecule,measurement,setting,value
B1,"target (unweighted spectral count, OC43 Probe II capture)",HCoV-OC43 gRNA and sgRNA; [2],17
same,target (unweighted spectral count),HCoV-OC43 gRNA and sgRNA; [3],9
same,target (unweighted spectral count in RNP capture),[1],15
same,background (unweighted spectral count in control),[1],1
same,target (unweighted spectral count of the protein in the RNP capture),SARS-CoV-2 gRNA; […],24
B2,target (unweighted spectral count),HCoV-OC43 gRNA and sgRNA; [4],5
same,target (unweighted spectral count in RNP capture),[1],32
same,background (unweighted spectral count in control),[1],1
same,target (unweighted spectral count of the protein in the RNP capture),SARS-CoV-2 gRNA; […],19
B3,"target (unweighted spectral count, OC43 Probe II capture)",HCoV-OC43 gRNA and sgRNA; [5],4
same,target (unweighted spectral count in RNP capture),[1],8
same,background (unweighted spectral count in control),[1],1
same,target (unweighted spectral count in RNP capture),"SARS-CoV-2 gRNA; Probe I capture, […], LC-MS/MS LFQ",5
same,background (unweighted spectral count in control),"SARS-CoV-2 gRNA; no-probe control pull-down, used as background for Probe I",1
B4,"target (unweighted spectral count, OC43 Probe II capture)",HCoV-OC43 gRNA and sgRNA; [5],8
same,target (unweighted spectral count),HCoV-OC43 gRNA and sgRNA; [4],5
same,"target (unweighted spectral count, OC43 Probe II)","HCoV-OC43 gRNA and sgRNA; type n_36_v, 36 hpi, OC43 Probe II capture on infected cells",11
same,"background (unweighted spectral count, no-probe control)","HCoV-OC43 gRNA and sgRNA; type n_36_v, 36 hpi, no-probe control on infected cells",4
same,background (unweighted spectral count in control),[1],1
same,target (unweighted spectral count of the protein in the RNP capture),SARS-CoV-2 gRNA; […],14
B5,"background (unweighted spectral count, no-probe control)",HCoV-OC43 gRNA and sgRNA,4
same,target (unweighted spectral count),HCoV-OC43 gRNA and sgRNA,5
same,"target (unweighted spectral count, OC43 Probe II capture)",HCoV-OC43 gRNA and sgRNA,14
same,"target (unweighted spectral count, OC43 Probe II)",HCoV-OC43 gRNA and sgRNA,19
same,target (unweighted spectral count in RNP capture),[1],16
same,background (unweighted spectral count in control),[1],1
same,target (unweighted spectral count of the protein in the RNP capture),SARS-CoV-2 gRNA; […],21
B6,"target (unweighted spectral count, OC43 Probe II capture)",HCoV-OC43 gRNA and sgRNA; [2],76
same,target (unweighted spectral count),HCoV-OC43 gRNA and sgRNA; [4],23
same,target (unweighted spectral count),HCoV-OC43 gRNA and sgRNA; [3],47
same,"target (unweighted spectral count, OC43 Probe II)",HCoV-OC43 gRNA and sgRNA; [6],86
same,"background (unweighted spectral count, no-probe control)",HCoV-OC43 gRNA and sgRNA; [7],5
same,target (unweighted spectral count in RNP capture),[1],82
same,background (unweighted spectral count in control),[1],1
same,target (unweighted spectral count of the protein in the RNP capture),SARS-CoV-2 gRNA; […],128
B7,"target (unweighted spectral count, OC43 Probe II capture)",HCoV-OC43 gRNA and sgRNA; [2],7
same,target (unweighted spectral count),HCoV-OC43 gRNA and sgRNA; [4],6
same,target (unweighted spectral count),HCoV-OC43 gRNA and sgRNA; [3],9
same,"target (unweighted spectral count, OC43 Probe II)",HCoV-OC43 gRNA and sgRNA; [6],11
same,"background (unweighted spectral count, no-probe control)",HCoV-OC43 gRNA and sgRNA; [7],1
same,target (unweighted spectral count in RNP capture),[1],7
same,background (unweighted spectral count in control),[1],1
same,target (unweighted spectral count of the protein in the RNP capture),SARS-CoV-2 gRNA; […],5
